Measured values from patent US20240294646A1.

How the values were obtained:
[1] = target: Soluble FcγRIIb extracellular domain with C-terminal 10×His tag (UniProt P31994); experiment: SPR (Protocol 2); ratio of FcγRIIb fold to FcγRIIaR fold over wild-type
[2] = target: Soluble FcγRIIaR extracellular domain with C-terminal 10×His tag (UniProt P12318); experiment: SPR (Protocol 2): one-armed antibody captured on immobilised HER2, soluble receptor as analyte; fold over wild-type
[3] = target: Soluble FcγRIIb extracellular domain with C-terminal 10×His tag (UniProt P31994); experiment: as above
[4] = target: C1q (human) (UniProt P02745); experiment: ELISA; antibody coated, human C1q added, signal as % of WT
[5] = target: FcγRIIb (UniProt P31994); experiment: SPR; ratio of IIb-fold to IIaR-fold, FcγRIIaR as comparison receptor
[6] = target: FcγRIIb (UniProt P31994); experiment: SPR; trastuzumab FSA variant against FSA WT v21653
[7] = target: FcγRIIaR (UniProt P12318); experiment: SPR; trastuzumab FSA variant against FSA WT v21653
[8] = target: C1q (human) (UniProt P02745); experiment: C1q ELISA, antibody coated
[9] = target: C1q (human) (UniProt P02745); experiment: cell-based or functional assay

Sequence of FcγRIIaR (P12318 34-217): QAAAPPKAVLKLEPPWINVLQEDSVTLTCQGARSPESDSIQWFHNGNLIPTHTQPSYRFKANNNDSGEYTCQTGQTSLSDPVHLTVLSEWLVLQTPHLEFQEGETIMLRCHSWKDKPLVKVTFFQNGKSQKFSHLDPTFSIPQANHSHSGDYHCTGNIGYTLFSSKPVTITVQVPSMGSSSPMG
Sequence of Soluble FcγRIIaR extracellular domain with C-terminal 10×His tag (P12318 other isoform, or with tags, fused parts or gaps): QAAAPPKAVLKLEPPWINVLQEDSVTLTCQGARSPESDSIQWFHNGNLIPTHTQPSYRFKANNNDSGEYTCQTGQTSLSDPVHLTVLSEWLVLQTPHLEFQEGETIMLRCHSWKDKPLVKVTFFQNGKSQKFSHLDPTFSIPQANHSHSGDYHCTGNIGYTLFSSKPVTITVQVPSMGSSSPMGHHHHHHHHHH
Sequence of Soluble FcγRIIb extracellular domain with C-terminal 10×His tag (P31994 other isoform, or with tags, fused parts or gaps): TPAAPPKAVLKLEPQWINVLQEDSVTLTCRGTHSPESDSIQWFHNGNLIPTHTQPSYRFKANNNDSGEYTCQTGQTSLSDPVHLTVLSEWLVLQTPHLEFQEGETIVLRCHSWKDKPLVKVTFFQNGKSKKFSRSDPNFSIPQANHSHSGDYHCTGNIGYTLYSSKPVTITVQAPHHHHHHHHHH
Sequence of FcγRIIb (P31994 43-217): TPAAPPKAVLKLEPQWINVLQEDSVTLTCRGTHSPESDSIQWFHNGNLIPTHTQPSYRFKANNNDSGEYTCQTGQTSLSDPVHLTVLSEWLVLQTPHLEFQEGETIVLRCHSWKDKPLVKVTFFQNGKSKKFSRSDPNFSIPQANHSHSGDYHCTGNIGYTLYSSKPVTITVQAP
Sequence of C1q (human) (P02745 23-245 limits assumed, chain 1 of 3): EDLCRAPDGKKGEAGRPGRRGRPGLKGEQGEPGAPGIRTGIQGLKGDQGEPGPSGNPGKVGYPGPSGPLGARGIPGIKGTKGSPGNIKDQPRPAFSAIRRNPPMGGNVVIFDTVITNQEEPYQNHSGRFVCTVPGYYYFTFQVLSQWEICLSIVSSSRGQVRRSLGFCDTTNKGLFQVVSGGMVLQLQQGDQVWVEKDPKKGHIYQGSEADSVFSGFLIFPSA
Sequence of C1q (human) (P02746 28-253 limits assumed, chain 2 of 3, further chain): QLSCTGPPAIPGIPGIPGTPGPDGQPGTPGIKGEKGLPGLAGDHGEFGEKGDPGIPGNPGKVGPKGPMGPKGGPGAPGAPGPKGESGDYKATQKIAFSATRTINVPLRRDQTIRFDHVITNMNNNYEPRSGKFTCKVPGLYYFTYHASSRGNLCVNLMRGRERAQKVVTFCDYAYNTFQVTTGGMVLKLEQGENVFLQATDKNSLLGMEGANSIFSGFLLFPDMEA
Sequence of C1q (human) (P02747 29-245 limits assumed, chain 3 of 3, further chain): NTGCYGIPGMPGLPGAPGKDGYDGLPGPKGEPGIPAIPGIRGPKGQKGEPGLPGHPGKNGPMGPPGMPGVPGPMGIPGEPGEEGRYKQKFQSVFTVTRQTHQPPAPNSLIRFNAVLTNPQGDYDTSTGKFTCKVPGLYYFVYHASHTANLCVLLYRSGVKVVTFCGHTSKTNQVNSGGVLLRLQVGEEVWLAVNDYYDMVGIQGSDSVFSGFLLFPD

Row | C1q Binding (% WT) [4] [% WT] | IIb Selectivity (IIb-Fold/IIaR-Fold) [5] | IIb-fold (fold change in affinity over wild-type) [6] [fold over WT] | IIaR-fold (fold change in affinity over wild-type) [7] [fold over WT] | Substance | other results
1 | – | – | – | – | Variant 19540, Lead 3 (one-armed trastuzumab antibody, heterodimeric IgG1 Fc; A: L234D_G236N_S267A / B: G236D_S239D_V266L_S267A_H268D) | IIb/IIaR Selectivity (IIb-Fold/IIaR-Fold) [1]: 14; IIaR-fold (fold change in affinity over wild-type) [2]: 1.8 fold; IIb-fold (fold change in affinity over wild-type) [3]: 25.4 fold
2 | – | – | – | – | Variant 19585, Lead 2 (one-armed trastuzumab antibody, heterodimeric IgG1 Fc; A: L234F_G236N_H268Q_K274Q_A327G_A330K_P331S / B: L234F_G236D_S239D_V266L_S267A_H268D_K274Q_A327G_A330S_P331S) | IIb/IIaR Selectivity (IIb-Fold/IIaR-Fold) [1]: 12; IIaR-fold (fold change in affinity over wild-type) [2]: 4.1 fold; IIb-fold (fold change in affinity over wild-type) [3]: 49.5 fold
3 | – | – | – | – | Variant 22115 (one-armed trastuzumab antibody, heterodimeric IgG1 Fc; A: L234D_G236N_S267A_H268Q_K274Q_A327G_A330K_P331S / B: G236D_S239D_V266L_S267I_H268D_L234F_K274Q_A327G_A330K_P331S) | IIb/IIaR Selectivity (IIb-Fold/IIaR-Fold) [1]: 5.9; IIaR-fold (fold change in affinity over wild-type) [2]: 0.4 fold; IIb-fold (fold change in affinity over wild-type) [3]: 2.6 fold
4 | – | – | – | – | Variant 22116 (one-armed trastuzumab antibody, heterodimeric IgG1 Fc; A: L234D_G236N_S267A_K326D / B: G236D_S239D_V266L_S267A_H268D_K326D) | IIb/IIaR Selectivity (IIb-Fold/IIaR-Fold) [1]: 12.1; IIaR-fold (fold change in affinity over wild-type) [2]: 2.6 fold; IIb-fold (fold change in affinity over wild-type) [3]: 31.9 fold
5 | – | – | – | – | Variant 22117 (one-armed trastuzumab antibody, heterodimeric IgG1 Fc; A: L234D_G236N_H268Q_K274Q_A327G_A330K_P331S / B: L234F_G236D_S239D_V266L_S267A_H268D_K274Q_A327G_A330S_P331S) | IIb/IIaR Selectivity (IIb-Fold/IIaR-Fold) [1]: 12.7; IIaR-fold (fold change in affinity over wild-type) [2]: 2.3 fold; IIb-fold (fold change in affinity over wild-type) [3]: 28.7 fold
6 | – | – | – | – | Variant 22119 (one-armed trastuzumab antibody, heterodimeric IgG1 Fc; A: L234F_G236N_H268Q_K274Q_A327G_A330K_P331S / B: L234F_G236D_S239D_V266L_S267I_H268D_K274Q_A327G_A330S_P331S) | IIb/IIaR Selectivity (IIb-Fold/IIaR-Fold) [1]: 7.9; IIaR-fold (fold change in affinity over wild-type) [2]: 0.8 fold; IIb-fold (fold change in affinity over wild-type) [3]: 6.2 fold
7 | – | – | – | – | Variant 22120 (one-armed trastuzumab antibody, heterodimeric IgG1 Fc; A: L234F_G236N_H268Q_K274Q_A327G_A330K_P331S_K326D / B: L234F_G236D_S239D_V266L_S267A_H268D_K274Q_A327G_A330S_P331S_K326D) | IIb/IIaR Selectivity (IIb-Fold/IIaR-Fold) [1]: 8.8; IIaR-fold (fold change in affinity over wild-type) [2]: 9.7 fold; IIb-fold (fold change in affinity over wild-type) [3]: 85.8 fold
8 | – | – | – | – | Variant 22131 (one-armed trastuzumab antibody, heterodimeric IgG1 Fc; A: L234F_G236N_S267A / B: G236D_S239D_V266L_S267A_H268D) | IIb/IIaR Selectivity (IIb-Fold/IIaR-Fold) [1]: 10.4; IIaR-fold (fold change in affinity over wild-type) [2]: 4.3 fold; IIb-fold (fold change in affinity over wild-type) [3]: 45.1 fold
9 | 159 | 47 | 159 | 3 | Variant 32254 (trastuzumab FSA; chain A S239H_strat1, chain B D329*I_F328*Y_strat1) (antibody) | –
10 | 201 | 44 | 476 | 11 | Variant 32258 (trastuzumab FSA; chain A A237L_strat1, chain B G330*K_strat1) (antibody) | –
11 | 192 | 33 | 452 | 14 | Variant 32259 (trastuzumab FSA; chain A A237N_strat1, chain B G330*K_strat1) (antibody) | –
12 | 210 | 31 | 697 | 22 | Variant 32262 (trastuzumab FSA; chain A L234T_strat1, chain B G330*K_strat1) (antibody) | –
13 | 146 | 33 | 557 | 17 | Variant 32264 (trastuzumab FSA; chain A L235D_strat1, chain B G330*K_strat1) (antibody) | –
14 | 224 | 31 | 1120 | 36 | Variant 32265 (trastuzumab FSA; chain A S239A_strat1, chain B G330*K_strat1) (antibody) | –
15 | 219 | 38 | 1150 | 30 | Variant 32266 (trastuzumab FSA; chain A S239G_strat1, chain B G330*K_strat1) (antibody) | –
16 | 201 | 33 | 803 | 25 | Variant 32267 (trastuzumab FSA; chain A S239H_strat1, chain B G330*K_strat1) (antibody) | –
17 | -1 | 18 | 196 | 11 | Variant 32270 (trastuzumab FSA; chain A E272Y_strat2, chain B G237L_strat2) (antibody) | –

Row | C1q Binding (% WT) [4] [% WT] | IIb Selectivity (IIb-Fold/IIaR-Fold) [5] | IIb-fold (fold change in affinity over wild-type) [6] [fold over WT] | IIaR-fold (fold change in affinity over wild-type) [7] [fold over WT] | Substance | other results
18 | 3 | 26 | 251 | 10 | Variant 32271 (trastuzumab FSA; chain A G237L_strat2, chain B G237L_strat2) (antibody) | –
19 | 3 | 18 | 164 | 9 | Variant 32272 (trastuzumab FSA; chain A K330T_strat2, chain B G237L_strat2) (antibody) | –
20 | 2 | 26 | 95 | 4 | Variant 32274 (trastuzumab FSA; chain A P329A_strat2, chain B G237L_strat2) (antibody) | –
21 | 3 | 24 | 94 | 4 | Variant 32276 (trastuzumab FSA; chain A P329V_strat2, chain B G237L_strat2) (antibody) | –
22 | 1 | 17 | 155 | 9 | Variant 32278 (trastuzumab FSA; chain A S267A_strat2, chain B G237L_strat2) (antibody) | –
23 | 1 | 19 | 53 | 3 | Variant 32279 (trastuzumab FSA; chain A S267K_strat2, chain B G237L_strat2) (antibody) | –
24 | – | – | – | – | anti-CD19 (4G7) full-size antibody, Fc negative variant (L234A_L235A_D265S) | C1q - Variant Binding Relative to WT (%) [8]: 0.61%; C1q Concentration at Onset of Binding [8]: 29.6 nM
25 | – | – | – | – | anti-CD19 (4G7) full-size antibody, control SELF (S267E_L328F) | EC50 [8]: 0.36 nM
26 | – | – | – | – | anti-CD19 (4G7) full-size antibody, control v12 (symmetrical E233D_G237D_P238D_H268D_P271G_A330R) | C1q - Variant Binding Relative to WT (%) [8]: 6.72%; C1q Concentration at Onset of Binding [8]: 2.84 nM
27 | – | – | – | – | anti-CD19 (4G7) full-size antibody, wild-type CH2 (variant 21653) | EC50 [8]: 0.31 nM
28 | – | – | – | – | anti-CD40 (Chi Lob 7/4) full-size antibody, Fc negative variant (L234A_L235A_D265S) | C1q - Variant Binding Relative to WT (%) [8]: 0%
29 | – | – | – | – | anti-CD40 (Chi Lob 7/4) full-size antibody, control SELF (S267E_L328F) | C1q - Variant Binding Relative to WT (%) [8]: 50.4%; C1q Concentration at Onset of Binding [8]: 0.73 nM; EC50 [8]: 4.73 nM
30 | – | – | – | – | anti-CD40 (Chi Lob 7/4) full-size antibody, control v12 (symmetrical E233D_G237D_P238D_H268D_P271G_A330R) | C1q - Variant Binding Relative to WT (%) [8]: 0%
31 | – | – | – | – | anti-CD40 (Chi Lob 7/4) full-size antibody, wild-type CH2 (variant 21653) | C1q Concentration at Onset of Binding [8]: 0.41 nM; EC50 [8]: 1.49 nM
32 | – | – | – | – | anti-CD40 full-size antibody (Chi Lob 7/4 Fab) with Fc negative variant (L234A, L235A, D265S) | CDC assay on Ramos cells: Lysis (%) Mean, at highest test antibody concentration [9]: 5.13%
33 | – | – | – | – | anti-CD40 full-size antibody (Chi Lob 7/4 Fab) with control Fc SELF (S267E_L328F) | CDC assay on Ramos cells: Lysis (%) Mean, at highest test antibody concentration [9]: 78.2%; CDC assay on Ramos cells: Normalized Potency Mean [9]: 93.6 % of WT; CDC assay on Ramos cells: Potency (ng/mL) Mean, antibody concentration above which >20% cell lysis was achieved [9]: 166 ng/mL
34 | – | – | – | – | anti-HER2 (trastuzumab) full-size antibody, wild-type CH2 (variant 21653) | C1q Concentration at Onset of Binding [8]: 0.16 nM; EC50 [8]: 0.88 nM
